Experiments:
SEQ ID NO: 12 peptide = molecular target: T1, SEQ ID NO: 12 peptide
T1 chain: EVLKNLLEKLLEKLKELF

SEQ ID NO: 13 peptide = molecular target: T2, SEQ ID NO: 13 peptide
T2 chain: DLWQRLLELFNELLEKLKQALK

SEQ ID NO: 14 peptide = molecular target: T3, SEQ ID NO: 14 peptide
T3 chain: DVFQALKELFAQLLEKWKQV

SEQ ID NO: 2 peptide = molecular target: T4, SEQ ID NO: 2 peptide
T4 chain: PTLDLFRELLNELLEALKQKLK

SEQ ID NO: 3 peptide = molecular target: T5, SEQ ID NO: 3 peptide
T5 chain: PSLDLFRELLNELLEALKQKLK

SEQ ID NO: 4 peptide = molecular target: T6, SEQ ID NO: 4 peptide
T6 chain: PVLDLFRELLNELLQKLKK

SEQ ID NO: 5 peptide = molecular target: T7, SEQ ID NO: 5 peptide
T7 chain: PTLDLFRELLNELLQKLKK

SEQ ID NO: 6 peptide = molecular target: T8, SEQ ID NO: 6 peptide
T8 chain: PVLDLFRELLEELLQKLKK

B1: recombinant human LCAT (lecithin:cholesterol acyltransferase) (protein)
chain: FWLLNVLFPPHTTPKAELSNHTRPVILVPGCLGNQLEAKLDKPDVVNWMCYRKTEDFFTIWLDLNMFLPLGVDCWIDNTRVVYNRSSGLVSNAPGVQIRVPGFGKTYSVEYLDSSKLAGYLHTLVQNLVNNGYVRDETVRAAPYDWRLEPGQQEEYYRKLAGLVEEMHAAYGKPVFLIGHSLGCLHLLYFLLRQPQAWKDRFIDGFISLGAPWGGSIKPMLVLASGDNQGIPIMSSIKLKEEQRITTTSPWMFPSRMAWPEDHVFISTPSFNYTGRDFQRFFADLHFEEGWYMWLQSRDLLAGLPAPGVEVYCLYGVGLPTPRTYIYDHGFPYTDPVGVLYEDGDDTVATRSTELCGLWQGRQPQPVHLLPLHGIQHLNMVFSNLTLEHINAILLGAYRQGPPASPTASPEPPPPE
RELATIVE ACTIVITY (Percent activity relative to SEQ ID: 1); DHE esterification by rhLCAT with peptide mHDL substrate (SEQ ID NO: 12 peptide): 21% | RELATIVE ACTIVITY (Percent activity relative to SEQ ID: 1); DHE esterification by rhLCAT with peptide mHDL substrate (SEQ ID NO: 13 peptide): 0% | RELATIVE ACTIVITY (Percent activity relative to SEQ ID: 1); DHE esterification by rhLCAT with peptide mHDL substrate (SEQ ID NO: 14 peptide): 0% | RELATIVE ACTIVITY (Percent activity relative to SEQ ID: 1); DHE esterification by rhLCAT with peptide mHDL substrate (SEQ ID NO: 2 peptide): 94% | RELATIVE ACTIVITY (Percent activity relative to SEQ ID: 1); DHE esterification by rhLCAT with peptide mHDL substrate (SEQ ID NO: 3 peptide): 87% | RELATIVE ACTIVITY (Percent activity relative to SEQ ID: 1); DHE esterification by rhLCAT with peptide mHDL substrate (SEQ ID NO: 4 peptide): 86% | RELATIVE ACTIVITY (Percent activity relative to SEQ ID: 1); DHE esterification by rhLCAT with peptide mHDL substrate (SEQ ID NO: 5 peptide): 65% | RELATIVE ACTIVITY (Percent activity relative to SEQ ID: 1); DHE esterification by rhLCAT with peptide mHDL substrate (SEQ ID NO: 6 peptide): 65%

Reference: patent publication US20140024061
